Reference: US20240117073A1, “METHODS OF TREATING NEOPLASTIC ASTROCYTOMA” (Ludwig Institute for Cancer Research Ltd., priority 2009, published 2024)
Marks after values point to notes of the source that are not given here.

Experiments:
[1] = biological target: T1, biotinylated de2-7 specific peptide (Homo sapiens, UniProt P00533, DELINS30-297G); assay: ELISA on de2-7 peptide; assay type: binding
T1 construct: purchased Auspep, Melbourne, Australia; host or cells: synthetic (Fmoc chemistry)
From the text: In the second assay, the biotinylated de2-7 specific peptide (Biotin-[…] (SEQ ID NO:5)) was bound to ELISA plates precoated with streptavidin (Pierce, Rockford, Illinois). Antibodies were bound and detected as in the first assay.

[2] = biological target: T2, denatured soluble domain of the EGFR (sEGFR) (Homo sapiens, UniProt P00533); assay: competition ELISA; assay type: binding; details: after unlabeled blocking antibody
T2 construct: sEGFR is the recombinant extracellular domain (amino acids 1-621) of the wild-type EGFR; made in house; host or cells: CHO cells
Protocol: Briefly, the denatured soluble domain of the EGFR (sEGFR) was coated on to ELISA plates. The unlabeled 124 or 1133 antibodies were then added across the plate in increasing concentrations.

deglycosylated sEGFR = biological target: T3, deglycosylated sEGFR (Homo sapiens, UniProt P00533); assay: immunoblot of PNGase F treated sEGFR; assay type: binding
T3 construct: sEGFR is the recombinant extracellular domain (amino acids 1-621) of the wild-type EGFR; host or cells: CHO cells
Protocol: To determine if carbohydrate structures are directly involved in the mAb806 epitope, the recombinant sEGFR expressed in CHO cells was treated with PNGase F to remove N-linked glycosylation.

sEGFR = biological target: T4, sEGFR (Homo sapiens, UniProt P00533); assay: BIAcore, immobilized sEGFR; assay type: binding
T4 construct: sEGFR is the recombinant extracellular domain (amino acids 1-621) of the wild-type EGFR; host or cells: CHO cells
Protocol: In a second set of BIAcore™ experiments, sEGFR was immobilized on a CM microsensor chip at a surface density of ˜4000RU. Serial dilutions of mAbs were tested for reactivity with sEGFR.

[3] = test system: U87MG expressing wild-type EGFR; assay: protein A mixed hemadsorption; assay type: cell-based, human; details: undiluted supernatant less than 10%
Protocol: As expected, the 528 antibody stained both the U87MG.Δ2-7 and U87MG.wtEGFR cell lines (FIG. 1). As expected, the 528 antibody stained U87MG.Δ2-7 with a higher intensity than the parental cell as it binds both the de2-7 and wild-type receptors that are co-expressed in these cells (FIG. 1). Similar results were obtained using a protein A mixed hemadsorption which detects surface bound IgG by appearance of […] (group O) to target cells.

U87MG brain xenografts = assay: systemic treatment of intracranial xenografts; design: species or system nude mice; details: mouse, in vivo
Protocol: U87MG.ΔEGFR cells (1×10^5) or 5×10^5 LN-Z308.ΔEGFR, A1207.ΔEGFR, U87MG, U87MG.DK, and U87MG.wtEGFR cells in 5 μl of PBS were implanted into the right corpus stratum of nude mice brains as described previously (Mishima et al. (2000) A peptide derived from the non-receptor binding region of urokinase plasminogen activator inhibits glioblastoma growth and angiogenesis in vivo in combination with cisplatin. Proc. Natl. Acad. Sci. U.S.A. 97, 8484-8489).

normal tissues = assay: immunohistochemistry of normal tissue; design: species or system human
Protocol: (§1) Immunohistochemical analysis was performed using […] sections of fresh frozen tissue applied to histology slides and fixed for 10 minutes in cold acetone. Bound primary antibody was detected with biotinylated horse anti-mouse antibody followed by an avidin-biotin-complex reaction. Diaminobenzidine tetra hydrochloride (DAB) was used as chromogen. The extent of the immunohistochemical reactivity in tissues was estimated by light microscopy and graded according to the number of immunoreactive cells in 25% increments as follows: • Focal=less than 5% • +=5-25% • ++=25-50% • +++=50-75% • ++++=>75%
There was some variable staining present in tonsils with mAb806 that was restricted to the basal cell layer of the epidermis and mucosal squamous cells of the epithelium. In placenta, occasional immunostaining of the trophoblast epithelium was observed. […] All tissues were positive for the wtEGFR as evidenced by the universal staining seen with the 528 antibody (Table 3).

U87MG.DK cells = assay: FACS binding to cell lines; assay type: cell-based, human
Protocol: Stained cells were analyzed with a FACS Calibur™ using Cell Quest™ software (Becton-Dickinson PharMingen). […] 1. Mouse IgG2a or IgG2b was used as an isotype control.

[4] = test system: panel of 12 different malignancies; assay: immunohistochemistry of tumor panel; design: species or system human
Protocol: as §1
The extent of de2-7 EGFR in other tumor types was examined using a panel of 12 different malignancies. […] This staining was strongly dependent on antibody concentration used and was considered nonspecific background reactivity.

xenograft A431 = assay: immunohistochemistry of xenograft sections; design: species or system human
Protocol: (§2) Xenografts were excised and bisected. One half was fixed in 10% formalin/PBS before being embedded in paraffin. Four micron sections were then cut and stained with haematoxylin and eosin (H&E) for routine histological examination. The other half was embedded in Tissue Tek® OCT compound (Sakura Finetek, Torrance, CA), frozen in liquid nitrogen and stored at −80° C. Thin (5 micron) cryostat sections were cut and fixed in ice-cold acetone for 10 min followed by air drying for a further 10 min. Sections were blocked in protein blocking reagent (Lipshaw Immunon, Pittsburgh U.S.A.) for 10 min and then incubated with biotinylated primary antibody (1 mg/ml), for 30 min at room temperature (RT). All antibodies were biotinylated using the ECL™ protein biotinylation module (Amersham, Baulkham Hills, Australia), as per the manufacturer's instructions. After rinsing with PBS, sections were incubated with a streptavidin horseradish peroxidase complex for a further 30 min (Silenus, Melbourne, Australia). Following a final PBS wash the sections were exposed to 3-amino-9-ethylcarbozole (AEC) substrate (0.1 M acetic acid, 0.1 M sodium acetate, 0.02 M AEC (Sigma Chemical Co., St Louis, MO)) in the presence of hydrogen peroxide for 30 min. Sections were rinsed with water and counterstained with hematoxylin for 5 min and mounted.
(§3) Bound antibody was detected using the Dako Envision™+HRP detection system as per manufacturer's instructions. Sections were finally rinsed with water, counterstained with hematoxylin and mounted.

xenograft U87MG (native) = assay: immunohistochemistry of xenograft sections; design: species or system human
Protocol: as §2, §3

[5] = test system: glioblastomas not preselected for their EGFR status; assay: immunohistochemistry of 46 unselected glioblastomas; design: species or system human
Protocol: Immunohistochemical analysis was performed using 5 mm sections of fresh frozen tissue applied to histology slides and fixed for 10 minutes in cold acetone. Bound primary antibody was detected with biotinylated horse anti-mouse antibody followed by an avidin-biotin-complex reaction. Diaminobenzidine tetra hydrochloride (DAB) was used as chromogen. The extent of the immunohistochemical reactivity in tissues was estimated by light microscopy and graded according to the number of immunoreactive cells in 25% increments as follows: • Focal=less than 5% • +=5-25% • ++=25-50% • +++=50-75% • ++++=>75%

[6] = test system: MDA-468 breast cancer cell line; assay: FACS binding to cell lines; assay type: cell-based, human

B1: mAb806: murine monoclonal antibody recognizing de2-7 EGFR and amplified EGFR; VH SEQ ID NO:2, VL SEQ ID NO:4 (antibody, listed as Mus musculus, V domains shown)
VH: MRVLILLWLFTAFPGVLSDVQLQESGPSLVKPSQSLSLTCTVTGYSITSDFAWNWIRQFPGNKLEWMGYISYSGNTRYNPSLKSRISITRDTSKNQFFLQLNSVTIEDTATYYCVTAGRGFPYWGQGTLVTVSA
VL: MVSTAQFLAFLLLWFPGARCDILMTQSPSSMSVSLGDTVSITCHSSQDINSNIGWLQQRPGKSFKGLIYHGTNLDDEVPSRFSGSGSGADYSLTISSLESEDFADYYCVQYAQFPWTFGGGTKLEIKR
binding to unique de2-7 EGFR peptide [1]: Neither mAb806 nor the 528 antibody bound to the peptide | Binding of biotin-labeled 806 [2]: None | binding to deglycosylated sEGFR (deglycosylated sEGFR): clearly bound the deglycosylated material | reactivity with denaturated sEGFR (sEGFR): strongly reactive | reactivity [3]: no significant reactivity | effect on survival (U87MG brain xenografts): did not extend survival | reactivity (normal tissues; Skin): − occ. weak reactivity | reactivity (normal tissues; Tonsil): − occ. weak reactivity | FACS staining (U87MG.DK cells): reacted intensely | positive tumors/tumors tested ([4]; Colonic carcinoma): 0/10 | positive tumors/tumors tested ([4]; Head + neck cancer (sqcc)): 7/11 | positive tumors/tumors tested ([4]; Leiomyosarcoma): 0/5 | positive tumors/tumors tested ([4]; Liposarcoma): 0/5* | positive tumors/tumors tested ([4]; Lung (sqcc, adeno, neuroend)): 6/12 | positive tumors/tumors tested ([4]; Malignant melanoma metastases): 0/10 | positive tumors/tumors tested ([4]; Mammary gland): 1/10 | staining grades of positive tumors ([4]; Mammary gland): (foc) | positive tumors/tumors tested ([4]; Mfh Malignant fibrous histiocytoma): 0/5* | positive tumors/tumors tested ([4]; Ovary (serous-papillary)): 0/5 | positive tumors/tumors tested ([4]; Seminoma): 0/10 | positive tumors/tumors tested ([4]; Synovial sarcoma): 0/5* | positive tumors/tumors tested ([4]; Urinary bladder (tcc, sqcc, adeno)): 3/10* | tumors with positive staining ([4]; head and neck tumors): 64% | tumors with positive staining ([4]; lung carcinomas): 50% | tumors with positive staining ([4]; urinary tumors): 30% | immunohistochemical staining (xenograft A431): pos. (predominantly | immunohistochemical staining (xenograft U87MG (native)): undetectable | positive cases ([5]; 46 glioblastomas): 58.7% | positive cases/cases ([5]; 46 glioblastomas): 27/46 | immunohistochemical staining ([5]; case with EGFR Amp. N, A2): ++++ (++++=>75%) | immunohistochemical staining ([5]; cases with EGFR Amp. A, WT): ++++ (++++=>75%) | immunohistochemical staining ([5]; cases with EGFR Amp. N, mutation nd): neg. | immunohistochemical staining ([5]; cases with EGFR Amp. nd, mutation nd): neg. | cases with homogeneous immunoreactivity ([5]; mAb806: in more than 50% of the tumor): 22 | FACS staining [6]: clearly stained both cell lines but at a lower level
